Reference: paper PMC9478924

Assays:
Assay in all cases: SPR
CHI-1P = target: CHI-1P
[1] = target: CHI-1R (not stated | Rhipicephallus pulchellus (zebra tick or yellow back tick))
CHI-P1 = target: CHI-P1
[2] = target: CHI-R1 (Rhipicephallus pulchellus (zebra tick or yellow back tick) | not stated)
[3] = target: EVA-RPU02 (Rhipicephallus pulchellus (zebra tick or yellow back tick))
[4] = target: CHI-PR (not stated | Rhipicephallus pulchellus (zebra tick or yellow back tick))
EVA-4, P0C8E9 = target: T1, EVA-4, P0C8E9; details: remark: other sources report otherwise
T1 chain: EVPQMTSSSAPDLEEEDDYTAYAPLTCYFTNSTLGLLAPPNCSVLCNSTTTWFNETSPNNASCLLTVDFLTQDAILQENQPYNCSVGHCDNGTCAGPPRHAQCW

EVA-P974, A0A023 = target: T2, EVA-P974, A0A023; details: remark: other sources report otherwise
T2 chain: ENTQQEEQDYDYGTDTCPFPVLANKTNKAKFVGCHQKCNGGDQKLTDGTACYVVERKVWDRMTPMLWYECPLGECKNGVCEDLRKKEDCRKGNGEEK

B1: CCL22 (ligand)
chain: GPYGANMEDSVCCRDYVRYRLPLRVVKHFYWTSDSCPRPGVVLLTFRDKEICADPRVPWVKMILNKLSQ
With B1 the Kd (CHI-1P) was 25 nM and the Kd [1] was greater than 500 nM.

B2: CCL14 (ligand)
chain: TKTESSSRGPYHPSECCFTYTTYKIPRQRIMDYYETNSQCSKPGIVFITKRGHSVCTNPSDKWVQDYIKDMKEN
Work on B2 yielded a Kd (CHI-1P) of 149 nM, a Kd [1] of 60 nM and a Kd (CHI-P1) of 79 nM. It also gave a Kd [2] of 134 nM, a Kd [3] of 32.4 nM and a koff [3] of 0.024 s⁻¹. The kon [3] was 580000 M⁻¹ s⁻¹.

B3: CCL15 (ligand)
chain: QFTNDAETELMMSKLPLENPVVLNSFHFAADCCTSYISQSIPCSLMKSYFETSSECSKPGVIFLTKKGRQVCAKPSGPGVQDCMKKLKPYSI
B3 was tested, and the Kd [3] was 503 nM, the koff [3] was 0.069 s⁻¹ and the kon [3] was 140000 M⁻¹ s⁻¹.

B4: CCL18 (ligand)
chain: AQVGTNKELCCLVYTSWQIPQKFIVDYSETSPQCPKPGVILLTKRGRQICADPNKKWVQKYISDLKLNA
Binder B4 has a Kd (CHI-1P) of 206 nM, a Kd [1] greater than 500 nM and a Kd [4] of 315 nM. The Kd [3] was 651 nM, the koff [3] was 0.35 s⁻¹ and the kon [3] was 490000 M⁻¹ s⁻¹.

B5: CCL4, P13236 24-92 (ligand)
chain: APMGSDPPTACCFSYTARKLPRNFVVDYYETSSLCSQPAVVFQTKRSKQVCADPSESWVQEYVYDLELN
modifications: here or on the partner: biotin on the Avi-tag (Bir-A ligase)
B5 showed a Kd (EVA-4, P0C8E9) of 158 nM.

B6: CCL15, Q16663 22-113 (ligand)
chain: QFTNDAETELMMSKLPLENPVVLNSFHFAADCCTSYISQSIPCSLMKSYFETSSECSKPGVIFLTKKGRQVCAKPSGPGVQDCMKKLKPYSI
modifications: here or on the partner: biotin on the Avi-tag (Bir-A ligase)
B6 gave a Kd (EVA-P974, A0A023) of 299 nM.

B7: CCL16 (ligand)
chain: QPKVPEWVNTPSTCCLKYYEKVLPRRLVVGYRKALNCHLPAIIFVTKRNREVCTNPNDDWVQEYIKDPNLPLLPTRNLSTVKIITAKNGQPQLLNSQ
Work on B7 yielded a Kd (CHI-1P) of 182 nM and a Kd [1] greater than 500 nM.

B8: CCL1 (ligand)
chain: KSMQVPFSRCCFSFAEQEIPLRAILCYRNTSSICSNEGLIFKLKRGKEACALDTVGWVQRHRKMLRHCPSKRK
With B8 the Kd (CHI-1P) was 191 nM.
